For four molecules, Kd results are on record in paper PMC8809517, “Cofactor-independent RNA editing by a synthetic S-type PPR protein”.

Common to all, as to assay: high-throughput RNA pulldown from lysate on Ni-NTA beads; HRP: 50 mM Tris pH 8, 150 mM NaCl, 1 mM beta-mercaptoethanol, 50 ug/ml BSA, 3 ug/ml yeast RNA, 0.5% heparin; ITC and FP: Tris pH 8, 200 mM KCl, 5% glycerol; MST: 50 mM Tris pH 8, 200 mM NaCl, 1 mM DTT, BSA, heparin, 0.05% Tween 20
Common to all, as to conditions: tags: N-terminal His-eGFP

The target of series [1] is T1, GFP-9S library array, motif 4 ND N98G;D124R (synthetic construct, N98G;D124R).
T1 chain: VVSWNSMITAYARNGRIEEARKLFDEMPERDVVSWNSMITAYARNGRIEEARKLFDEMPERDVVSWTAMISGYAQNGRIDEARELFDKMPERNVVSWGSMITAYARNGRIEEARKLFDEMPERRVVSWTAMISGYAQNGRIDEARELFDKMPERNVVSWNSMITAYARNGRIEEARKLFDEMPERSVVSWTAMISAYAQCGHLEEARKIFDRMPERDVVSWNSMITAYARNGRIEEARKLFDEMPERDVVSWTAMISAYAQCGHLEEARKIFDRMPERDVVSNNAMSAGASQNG

The target in series [2] is T2, GFP-9S library array, motif 4 ND N98T;D124Y (synthetic construct, N98T;D124Y).
T2 chain: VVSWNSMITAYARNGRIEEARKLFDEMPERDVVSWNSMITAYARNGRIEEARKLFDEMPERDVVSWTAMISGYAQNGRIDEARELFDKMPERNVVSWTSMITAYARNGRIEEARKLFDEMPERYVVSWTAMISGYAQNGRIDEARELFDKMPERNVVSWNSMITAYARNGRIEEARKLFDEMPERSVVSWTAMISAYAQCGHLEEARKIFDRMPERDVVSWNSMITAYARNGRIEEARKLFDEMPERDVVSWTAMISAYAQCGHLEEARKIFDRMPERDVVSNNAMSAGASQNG

Series [3] has as its target T3, GFP-9S library array, motif 4 ND N98L;D124T (synthetic construct, N98L;D124T).
T3 chain: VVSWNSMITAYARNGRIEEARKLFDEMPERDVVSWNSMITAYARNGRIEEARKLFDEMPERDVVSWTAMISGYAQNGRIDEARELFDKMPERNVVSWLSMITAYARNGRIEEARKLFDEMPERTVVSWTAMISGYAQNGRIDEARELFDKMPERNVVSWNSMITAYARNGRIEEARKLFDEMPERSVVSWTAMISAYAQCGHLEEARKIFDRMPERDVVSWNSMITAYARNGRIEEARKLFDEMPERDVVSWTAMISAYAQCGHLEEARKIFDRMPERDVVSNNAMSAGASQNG

For series [4], the target named is T4, GFP-9S library array, motif 4 ND N98K;D124K (synthetic construct, N98K;D124K).
T4 chain: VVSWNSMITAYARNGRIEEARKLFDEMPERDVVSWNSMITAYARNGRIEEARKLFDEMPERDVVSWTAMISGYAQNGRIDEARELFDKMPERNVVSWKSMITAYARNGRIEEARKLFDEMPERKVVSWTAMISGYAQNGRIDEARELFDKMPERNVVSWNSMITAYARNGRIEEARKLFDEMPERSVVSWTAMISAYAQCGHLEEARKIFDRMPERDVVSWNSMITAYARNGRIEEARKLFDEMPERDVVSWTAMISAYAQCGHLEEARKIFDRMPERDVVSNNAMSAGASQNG

Series [5] deals with T5, GFP-9S library array, motif 4 ND N98C;D124E (synthetic construct, N98C;D124E).
T5 chain: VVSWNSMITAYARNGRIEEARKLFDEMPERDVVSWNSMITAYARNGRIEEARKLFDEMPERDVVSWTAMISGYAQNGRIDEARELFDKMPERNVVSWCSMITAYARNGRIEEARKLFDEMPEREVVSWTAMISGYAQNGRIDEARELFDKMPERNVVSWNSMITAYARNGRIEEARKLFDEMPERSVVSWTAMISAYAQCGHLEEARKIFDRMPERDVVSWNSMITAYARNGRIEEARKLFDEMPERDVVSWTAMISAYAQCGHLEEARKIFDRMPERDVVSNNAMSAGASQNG

B1: Cy5-rpoA (ssRNA)
RNA: AUUACACGUGA
Turning to B1, the Kd amounted to 100 nM in series [1] (label: 5' Cy5); 145 nM in series [2] (label: 5' Cy5); 103 nM in series [3] (label: 5' Cy5); 102 nM in series [4] (label: 5' Cy5); 503 nM in series [5] (label: 5' Cy5).

B2: IR-rpoA-A (ssRNA)
RNA: AUUAAACGUGA
On to B2, for which the Kd was determined as 158 nM in series [1] (label: 5' IRDye 800CW); 90.9 nM in series [2] (label: 5' IRDye 800CW); 171 nM in series [3] (label: 5' IRDye 800CW); 254 nM in series [4] (label: 5' IRDye 800CW); 146 nM in series [5] (label: 5' IRDye 800CW).

B3: Cy5-rpoA-G (ssRNA)
RNA: AUUAGACGUGA
With B3, the Kd in series [1] (label: 5' Cy5) was determined as 115 nM; in series [2] (label: 5' Cy5), 105 nM; in series [3] (label: 5' Cy5), 206 nM; in series [4] (label: 5' Cy5), 119 nM; in series [5] (label: 5' Cy5) it was 39.5 nM.

B4: IR-rpoA-U (ssRNA)
RNA: AUUAUACGUGA
As for B4, the equilibrium dissociation constant (Kd) in series [1] (label: 5' IRDye 800CW) was determined as 116 nM; in series [2] (label: 5' IRDye 800CW), 147 nM; in series [3] (label: 5' IRDye 800CW) it was 19 nM; in series [4] (label: 5' IRDye 800CW) it was 83.8 nM; in series [5] (label: 5' IRDye 800CW), 170 nM.
